This note sets out measurements from patent US20180086841A1 (Merck Sharp & Dohme, published 2018).

Where a chain is given by its changes, count along the chain named.

Assay in all cases: flow cytometry on CHO-K1 transfectants, right sub-column
For orientation: Flow cytometry measures light scatter and fluorescence of single cells or particles in a stream.

For one test, the target named is T1, F28A.
T1 construct: also called hCD27 F28A
T1 receptor chain: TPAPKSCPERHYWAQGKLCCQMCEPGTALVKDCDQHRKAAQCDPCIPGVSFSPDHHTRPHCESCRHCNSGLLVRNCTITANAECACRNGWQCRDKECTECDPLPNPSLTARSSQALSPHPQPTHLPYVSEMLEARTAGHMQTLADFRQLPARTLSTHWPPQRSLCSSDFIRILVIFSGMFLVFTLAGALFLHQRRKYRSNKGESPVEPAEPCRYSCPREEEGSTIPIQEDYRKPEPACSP

For the next test, the target named is T2, V30A.
T2 construct: also called hCD27 V30A
T2 receptor chain: T1 receptor chain with A28F, V30A

For a further test, the target named is T3, K31A.
T3 construct: also called hCD27 K31A
T3 receptor chain: T1 receptor chain with A28F, K31A

For the next test, the target named is T4, D43A.
T4 construct: also called hCD27 D43A
T4 receptor chain: T1 receptor chain with A28F, D43A

For another test, the target named is T5, R87A.
T5 construct: also called hCD27 R87A
T5 receptor chain: T1 receptor chain with A28F, R87A

Another test addresses T6, N88A.
T6 construct: also called hCD27 N88A
T6 receptor chain: T1 receptor chain with A28F, N88A

Another test concerns the target T7, G89A.
T7 construct: also called hCD27 G89A
T7 receptor chain: T1 receptor chain with A28F, G89A

A further test concerns the target T8, W90A.
T8 construct: also called hCD27 W90A
T8 receptor chain: T1 receptor chain with A28F, W90A

The next test has as its target T9, Q91A.
T9 construct: also called hCD27 Q91A
T9 receptor chain: T1 receptor chain with A28F, Q91A

The target of the next test is T10, R10A.
T10 construct: also called hCD27 R10A
T10 receptor chain: T1 receptor chain with R10A, A28F

Description for D43A: (§1) The hCD27 variants that were tested are listed. Amino acids correspond to the UniProt P26842-1 sequence. Amino acids 1-20 constitute the signal peptide. Binding is expressed as the geometric mean of the FITC signal, relative to antibody binding to hCD27, which was set at 100%.
(§2) The ability of several anti-hCD27 antibodies to bind to a series of hCD27 alanine mutants was determined using CHO-K1 cells, transiently transfected pCI-neo empty vector, pCI-neo.hCD27 and several pCI-neo.CD27Ala mutant constructs.
(§3) Detached cells were transferred to 96 wells round-bottomed well plates at approximately 1.2×10⁵ cells/well. After spinning down the cells, discarding the supernatants and re-suspending the cells in the residual volume, the primary antibodies were added and incubated for 30 minutes at 4° C. Cells were washed three times with DPBS/BSA 1%, followed by centrifugation, discarding of the supernatants and re-suspension in the residual volume. […] After washing once, antibody binding was detected using the HTS plate reader (FACS Canto II) and FlowJo software for data analysis. Debris, dead cells and doublets were excluded from the analysis. Binding was expressed as the geometric mean of the FITC signal, relative to antibody binding to hCD27, which was set at 100%.
Description for F28A: as §1, §2, §3
Description for G89A: as §1, §2, §3
Description for K31A: as §1, §2, §3
Description for N88A: as §1, §2, §3
Description for Q91A: as §1, §2, §3
Description for R10A: as §1, §2, §3
Description for R87A: as §1, §2, §3
Description for V30A: as §1, §2, §3
Description for W90A: as §1, §2, §3

B1: hCD27.131A (mouse parental 131A) (antibody, mouse IgG1, V domains shown)
VH: QIQLVQSGPELKKPGETVKISCKASGYTFTNYGMNWVKQAPGKGLKWMGWINTNTGEPTYAEEFKGRFAFSLETSATTAYLQINNLKNEDTATYFCAREGDAMDYWGQGTSVTVSS
VL: QIVLTQSPAIMSASPGEKVTMTCSASSSVSYMHWYQQKSGTSPKRWIYDTSKLASGVPARFSGSGSGTSYSLTISSMEAEDAATYYCQQWNSYPFTFGSGTKLEIK
notes: Mouse IgG1 antibody; also called mouse hCD27.131A
Take B1: the “binding, WT hCD27 = 100 (GM FITC)” value with F28A was determined as 57.1%; with V30A, 94%; with K31A, 134%; with D43A it was 96.2%; in the test with R87A, 111%; in the test with N88A, 124%. Moreover, the “binding, WT hCD27 = 100 (GM FITC)” value with G89A was 82.9%; in the test with W90A, 102%; with Q91A, 136%; with R10A, 108%.
